Assay results: patent US10562947B2, “Compositions and methods for preventing or treating diseases, conditions or processes characterized by aberrant fibroblast proliferation and extracellular matrix deposition” (MOERAE MATRIX, INC., priority 2011, dated 2020)

Experiments:
Assay in all cases: Kinase Profiling Assay
Format in all cases: biochemical
Conditions in all cases: 100 μM peptide
CDK1/cyclinB(h) = CDK1/cyclinB(h) (Homo sapiens, UniProt P06493)
In short: (§1)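 First, MK2 inhibitor peptides were applied to a panel of 266 human kinases; then each kinase's activity was measured in duplicate to assess off-target inhibition.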

CaMKIIβ(h) = CaMKIIβ(h) (Homo sapiens, UniProt Q13554)
In short: as §1

CaMKIIγ(h) = CaMKIIγ(h) (Homo sapiens, UniProt Q13555)
In short: as §1

F1t4(h) = F1t4(h) (Homo sapiens, UniProt P35916)
In short: as §1

Flt1(h) = Flt1(h) (Homo sapiens, UniProt P17948)
In short: as §1

Hck(h) activated = target: T1, Hck(h) activated (Homo sapiens, UniProt P08631)
T1 construct: purchased Millipore
In short: as §1

IKKα(h) = target: T2, IKKα(h) (Homo sapiens, UniProt O15111)
T2 construct: purchased Millipore
T2 sequence (O15111 1-745): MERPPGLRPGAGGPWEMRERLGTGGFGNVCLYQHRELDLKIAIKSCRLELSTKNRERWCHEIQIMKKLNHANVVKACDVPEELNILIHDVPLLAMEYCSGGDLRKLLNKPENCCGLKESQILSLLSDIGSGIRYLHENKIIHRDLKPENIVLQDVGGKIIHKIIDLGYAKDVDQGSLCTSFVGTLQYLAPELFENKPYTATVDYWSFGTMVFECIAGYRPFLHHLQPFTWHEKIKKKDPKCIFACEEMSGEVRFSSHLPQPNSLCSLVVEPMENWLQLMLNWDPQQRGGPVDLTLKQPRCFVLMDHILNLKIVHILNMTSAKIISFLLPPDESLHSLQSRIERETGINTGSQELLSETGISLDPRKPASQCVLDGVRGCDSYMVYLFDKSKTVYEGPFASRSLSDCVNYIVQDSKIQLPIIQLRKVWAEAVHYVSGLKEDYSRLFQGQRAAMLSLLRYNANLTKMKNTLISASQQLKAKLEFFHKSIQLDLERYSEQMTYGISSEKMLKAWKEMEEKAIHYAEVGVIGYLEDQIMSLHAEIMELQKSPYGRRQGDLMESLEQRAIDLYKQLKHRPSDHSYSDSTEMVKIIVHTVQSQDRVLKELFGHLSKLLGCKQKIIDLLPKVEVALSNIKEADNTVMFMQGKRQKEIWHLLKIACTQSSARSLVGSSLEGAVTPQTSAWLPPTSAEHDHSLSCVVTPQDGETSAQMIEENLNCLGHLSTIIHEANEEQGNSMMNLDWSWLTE
In short: as §1

MST2(h) = target: T3, MST2(h) (Homo sapiens, UniProt Q13188)
T3 sequence (Q13188 1-491): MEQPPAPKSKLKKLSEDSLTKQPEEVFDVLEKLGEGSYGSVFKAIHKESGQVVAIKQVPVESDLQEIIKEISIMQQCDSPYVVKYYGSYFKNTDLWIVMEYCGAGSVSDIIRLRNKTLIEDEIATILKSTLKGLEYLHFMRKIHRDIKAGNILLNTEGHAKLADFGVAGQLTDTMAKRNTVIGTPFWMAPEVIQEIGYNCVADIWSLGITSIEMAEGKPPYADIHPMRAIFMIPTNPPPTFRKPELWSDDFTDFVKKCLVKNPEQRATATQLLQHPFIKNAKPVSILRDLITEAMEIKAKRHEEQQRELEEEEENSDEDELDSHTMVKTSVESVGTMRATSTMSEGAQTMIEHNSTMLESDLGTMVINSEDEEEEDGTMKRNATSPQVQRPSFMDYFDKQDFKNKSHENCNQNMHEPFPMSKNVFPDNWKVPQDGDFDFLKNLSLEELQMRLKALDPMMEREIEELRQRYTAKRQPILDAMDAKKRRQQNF
In short: as §1

Met(Y1248C)(h) = Met(Y1248C)(h) (Homo sapiens, UniProt P08581, Y1230C)
In short: as §1

Mnk2(h) = Mnk2(h) (Homo sapiens, UniProt Q9HBH9)
In short: as §1

PAK4(h) = PAK4(h) (Homo sapiens, UniProt O96013)
In short: as §1

Ret(V804L)(h) = target: T4, Ret(V804L)(h) (Homo sapiens, UniProt P07949, V804L)
T4 construct: purchased Millipore (IC50 Profiler Express service)
In short: as §1

SAPK2a(h) = SAPK2a(h) (Homo sapiens, UniProt Q16539)
In short: as §1

SIK(h) = SIK(h) (Homo sapiens, UniProt P57059)
In short: as §1

STK33(h) = STK33(h) (Homo sapiens, UniProt Q9BYT3)
In short: as §1

TAK1(h) = target: T5, TAK1(h) (Homo sapiens, UniProt O43318)
T5 sequence (O43318 1-303 limits assumed): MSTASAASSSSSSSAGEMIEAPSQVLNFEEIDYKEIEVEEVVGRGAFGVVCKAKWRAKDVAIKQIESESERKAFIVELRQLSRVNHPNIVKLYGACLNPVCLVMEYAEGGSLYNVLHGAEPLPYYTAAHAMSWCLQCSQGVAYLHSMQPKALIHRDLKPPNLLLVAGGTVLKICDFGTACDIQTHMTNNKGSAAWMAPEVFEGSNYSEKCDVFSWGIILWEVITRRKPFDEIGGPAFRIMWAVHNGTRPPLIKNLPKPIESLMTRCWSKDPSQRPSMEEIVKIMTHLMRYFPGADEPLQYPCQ
In short: as §1

Tie2(h) = Tie2(h) (Homo sapiens, UniProt Q02763)
In short: as §1

mTOR(h) = mTOR(h) (Homo sapiens, UniProt P42345)
In short: as §1

CaMKIIβ(h), sequence (Q13554 whole entry): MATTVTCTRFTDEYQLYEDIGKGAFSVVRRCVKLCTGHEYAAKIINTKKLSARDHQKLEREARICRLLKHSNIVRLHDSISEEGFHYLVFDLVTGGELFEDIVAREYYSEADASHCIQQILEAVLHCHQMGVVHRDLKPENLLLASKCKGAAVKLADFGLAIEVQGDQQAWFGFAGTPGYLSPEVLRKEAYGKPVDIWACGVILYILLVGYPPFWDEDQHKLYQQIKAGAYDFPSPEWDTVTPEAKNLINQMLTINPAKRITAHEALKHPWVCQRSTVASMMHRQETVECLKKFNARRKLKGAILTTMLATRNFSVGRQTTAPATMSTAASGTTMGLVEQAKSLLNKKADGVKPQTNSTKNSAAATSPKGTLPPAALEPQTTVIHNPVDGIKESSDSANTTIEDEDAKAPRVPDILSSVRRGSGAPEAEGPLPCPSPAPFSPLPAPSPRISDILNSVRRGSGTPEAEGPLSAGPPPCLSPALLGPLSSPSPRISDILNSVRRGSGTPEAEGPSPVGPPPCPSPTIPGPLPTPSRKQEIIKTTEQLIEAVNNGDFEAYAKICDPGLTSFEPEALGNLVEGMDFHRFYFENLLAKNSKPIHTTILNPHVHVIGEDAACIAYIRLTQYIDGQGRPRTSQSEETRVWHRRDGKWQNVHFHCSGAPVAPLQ
F1t4(h), sequence (P35916 25-1363): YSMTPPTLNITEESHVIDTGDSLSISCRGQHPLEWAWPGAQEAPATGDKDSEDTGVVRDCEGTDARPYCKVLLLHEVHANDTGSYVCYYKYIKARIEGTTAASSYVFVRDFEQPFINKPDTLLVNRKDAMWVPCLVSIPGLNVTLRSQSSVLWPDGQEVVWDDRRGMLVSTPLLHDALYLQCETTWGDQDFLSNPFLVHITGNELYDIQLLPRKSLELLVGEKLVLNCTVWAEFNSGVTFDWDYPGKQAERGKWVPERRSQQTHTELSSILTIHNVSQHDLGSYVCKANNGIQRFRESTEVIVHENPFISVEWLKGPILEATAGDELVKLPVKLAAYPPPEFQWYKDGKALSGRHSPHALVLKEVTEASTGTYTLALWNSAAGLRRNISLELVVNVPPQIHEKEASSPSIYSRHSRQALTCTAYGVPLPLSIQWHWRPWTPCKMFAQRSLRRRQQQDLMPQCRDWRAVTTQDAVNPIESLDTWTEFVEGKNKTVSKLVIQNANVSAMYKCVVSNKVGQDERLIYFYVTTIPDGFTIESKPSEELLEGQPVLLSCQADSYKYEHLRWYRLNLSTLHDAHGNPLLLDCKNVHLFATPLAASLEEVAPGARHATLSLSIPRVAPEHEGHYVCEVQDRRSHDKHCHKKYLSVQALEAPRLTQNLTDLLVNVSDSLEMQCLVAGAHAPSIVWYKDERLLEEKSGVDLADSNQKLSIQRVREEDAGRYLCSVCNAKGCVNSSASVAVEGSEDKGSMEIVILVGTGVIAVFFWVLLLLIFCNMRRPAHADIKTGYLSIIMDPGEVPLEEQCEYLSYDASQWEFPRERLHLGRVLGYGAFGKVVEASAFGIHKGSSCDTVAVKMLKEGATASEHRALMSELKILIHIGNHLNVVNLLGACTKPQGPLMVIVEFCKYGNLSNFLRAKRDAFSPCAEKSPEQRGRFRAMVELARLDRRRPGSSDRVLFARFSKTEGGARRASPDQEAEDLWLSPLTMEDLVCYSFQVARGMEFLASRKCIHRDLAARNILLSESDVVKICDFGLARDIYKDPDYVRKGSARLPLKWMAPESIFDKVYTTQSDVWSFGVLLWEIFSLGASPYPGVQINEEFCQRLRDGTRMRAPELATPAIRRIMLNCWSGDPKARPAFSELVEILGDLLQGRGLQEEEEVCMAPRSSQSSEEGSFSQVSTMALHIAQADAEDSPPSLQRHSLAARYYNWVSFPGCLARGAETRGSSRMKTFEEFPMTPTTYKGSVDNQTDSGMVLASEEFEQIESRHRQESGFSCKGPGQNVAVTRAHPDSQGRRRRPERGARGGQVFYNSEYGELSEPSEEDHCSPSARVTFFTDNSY
T1 sequence (P08631 whole entry): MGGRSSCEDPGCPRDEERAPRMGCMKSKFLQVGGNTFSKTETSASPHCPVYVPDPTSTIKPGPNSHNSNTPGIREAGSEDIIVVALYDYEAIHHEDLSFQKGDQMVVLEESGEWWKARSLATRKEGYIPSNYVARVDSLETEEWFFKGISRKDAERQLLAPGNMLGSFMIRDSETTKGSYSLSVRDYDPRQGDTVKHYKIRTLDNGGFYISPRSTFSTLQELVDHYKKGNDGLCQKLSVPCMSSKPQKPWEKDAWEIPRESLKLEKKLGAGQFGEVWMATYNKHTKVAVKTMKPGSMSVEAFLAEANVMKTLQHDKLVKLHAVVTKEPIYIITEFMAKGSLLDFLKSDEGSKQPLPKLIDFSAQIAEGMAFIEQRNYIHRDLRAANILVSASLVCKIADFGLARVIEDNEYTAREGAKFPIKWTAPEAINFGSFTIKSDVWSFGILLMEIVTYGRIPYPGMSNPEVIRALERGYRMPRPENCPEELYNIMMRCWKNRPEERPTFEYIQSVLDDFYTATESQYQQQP
Tie2(h), sequence (Q02763 23-1124): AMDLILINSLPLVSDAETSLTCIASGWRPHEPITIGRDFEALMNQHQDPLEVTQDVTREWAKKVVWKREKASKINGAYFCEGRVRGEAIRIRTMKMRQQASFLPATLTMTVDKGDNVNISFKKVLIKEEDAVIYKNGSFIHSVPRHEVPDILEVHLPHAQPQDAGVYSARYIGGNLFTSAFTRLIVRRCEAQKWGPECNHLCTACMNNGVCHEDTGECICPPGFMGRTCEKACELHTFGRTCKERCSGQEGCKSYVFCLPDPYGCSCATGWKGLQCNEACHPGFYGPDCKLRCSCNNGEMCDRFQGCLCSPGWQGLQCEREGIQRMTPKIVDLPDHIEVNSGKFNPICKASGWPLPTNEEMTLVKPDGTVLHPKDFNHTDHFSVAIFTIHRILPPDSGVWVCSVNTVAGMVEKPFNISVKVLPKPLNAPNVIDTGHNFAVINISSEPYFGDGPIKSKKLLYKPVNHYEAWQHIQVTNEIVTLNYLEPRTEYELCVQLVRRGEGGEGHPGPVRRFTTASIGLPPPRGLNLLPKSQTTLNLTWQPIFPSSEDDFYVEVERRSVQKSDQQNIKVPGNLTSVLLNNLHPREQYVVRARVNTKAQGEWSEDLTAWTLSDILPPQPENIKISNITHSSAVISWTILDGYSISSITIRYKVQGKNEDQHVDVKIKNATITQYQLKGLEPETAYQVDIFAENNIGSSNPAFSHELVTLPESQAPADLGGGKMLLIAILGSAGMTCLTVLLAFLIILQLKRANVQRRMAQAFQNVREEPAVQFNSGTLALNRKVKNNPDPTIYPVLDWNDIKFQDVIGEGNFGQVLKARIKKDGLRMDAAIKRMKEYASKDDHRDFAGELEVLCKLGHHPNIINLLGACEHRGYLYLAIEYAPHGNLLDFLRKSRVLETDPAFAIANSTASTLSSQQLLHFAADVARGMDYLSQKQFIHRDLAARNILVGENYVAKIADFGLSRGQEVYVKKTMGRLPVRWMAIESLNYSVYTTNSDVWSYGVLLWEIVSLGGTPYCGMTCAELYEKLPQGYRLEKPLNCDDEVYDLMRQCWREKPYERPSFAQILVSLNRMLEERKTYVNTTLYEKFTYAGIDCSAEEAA
SIK(h), sequence (P57059 whole entry): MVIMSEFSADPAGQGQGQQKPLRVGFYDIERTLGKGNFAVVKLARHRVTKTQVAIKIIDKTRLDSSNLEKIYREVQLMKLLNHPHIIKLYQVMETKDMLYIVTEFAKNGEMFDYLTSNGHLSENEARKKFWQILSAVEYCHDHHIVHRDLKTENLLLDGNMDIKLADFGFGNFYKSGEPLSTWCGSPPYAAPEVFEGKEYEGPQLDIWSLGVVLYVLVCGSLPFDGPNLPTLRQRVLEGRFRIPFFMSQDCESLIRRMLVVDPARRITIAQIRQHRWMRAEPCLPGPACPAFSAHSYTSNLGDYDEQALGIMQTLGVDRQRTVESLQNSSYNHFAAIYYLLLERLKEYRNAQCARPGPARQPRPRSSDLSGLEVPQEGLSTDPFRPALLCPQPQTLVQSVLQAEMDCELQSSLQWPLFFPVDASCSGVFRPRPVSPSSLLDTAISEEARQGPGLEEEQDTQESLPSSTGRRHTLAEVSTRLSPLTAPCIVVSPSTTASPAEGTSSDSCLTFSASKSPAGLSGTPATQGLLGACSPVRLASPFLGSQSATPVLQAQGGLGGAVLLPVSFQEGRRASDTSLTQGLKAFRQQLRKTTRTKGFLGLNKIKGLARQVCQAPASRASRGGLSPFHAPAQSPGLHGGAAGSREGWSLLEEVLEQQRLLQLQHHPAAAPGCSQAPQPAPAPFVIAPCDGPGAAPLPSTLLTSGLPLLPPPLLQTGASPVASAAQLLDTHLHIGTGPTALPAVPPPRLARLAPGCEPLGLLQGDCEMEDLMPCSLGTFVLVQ
CaMKIIγ(h), sequence (Q13555 whole entry): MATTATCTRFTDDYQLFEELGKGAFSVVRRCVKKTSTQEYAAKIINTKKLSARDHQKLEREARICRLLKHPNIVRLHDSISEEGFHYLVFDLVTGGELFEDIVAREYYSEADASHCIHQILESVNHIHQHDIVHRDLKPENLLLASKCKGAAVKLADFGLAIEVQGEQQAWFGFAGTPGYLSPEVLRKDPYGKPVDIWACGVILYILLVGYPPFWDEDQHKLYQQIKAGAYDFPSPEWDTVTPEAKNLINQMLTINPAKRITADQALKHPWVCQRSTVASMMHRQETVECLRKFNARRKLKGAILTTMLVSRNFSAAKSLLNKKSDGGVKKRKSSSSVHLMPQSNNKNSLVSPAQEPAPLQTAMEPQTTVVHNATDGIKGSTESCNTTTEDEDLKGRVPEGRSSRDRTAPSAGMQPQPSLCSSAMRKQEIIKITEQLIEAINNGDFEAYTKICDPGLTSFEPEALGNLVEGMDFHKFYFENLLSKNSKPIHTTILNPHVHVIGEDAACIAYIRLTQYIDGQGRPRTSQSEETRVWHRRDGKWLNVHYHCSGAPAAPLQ

| Sequence | CDK1/cyclinB(h) % activity (CDK1/cyclinB(h)) | CaMKIIβ(h) % activity (CaMKIIβ(h)) | CaMKIIγ(h) % activity (CaMKIIγ(h)) | F1t4(h) % activity (F1t4(h)) | Flt1(h) % activity (Flt1(h)) | Hck(h) activated % activity (Hck(h) activated) | IKKα(h) % activity (IKKα(h)) | MST2(h) % activity (MST2(h)) | Met(Y1248C)(h) % activity (Met(Y1248C)(h)) | Mnk2(h) % activity (Mnk2(h)) | PAK4(h) % activity (PAK4(h)) | Ret(V804L)(h) % activity (Ret(V804L)(h)) | SAPK2a(h) % activity (SAPK2a(h)) | SIK(h) % activity (SIK(h)) | STK33(h) % activity (STK33(h)) | TAK1(h) % activity (TAK1(h)) | Tie2(h) % activity (Tie2(h)) | mTOR(h) % activity (mTOR(h)) |
| --- | --- | --- | --- | --- | --- | --- | --- | --- | --- | --- | --- | --- | --- | --- | --- | --- | --- | --- |
| FAKLAARLYRKALARQLGVAA [MMI-0300] | 73% | 2% | 5% | 83% | 69% | 82% | 93% | 19% | 84% | 89% | 94% | 79% | 90% | 66% | 45% | 122% | 26% | 91% |
| HRRIKAWLKKIKALARQLGVAA (Mammalian) [MMI-0500] | 57% | 3% | 3% | 73% | 27% | 67% | 50% | 2% | 73% | 6% | 86% | 20% | 52% | 40% | 16% |  | 22% | 135% |
| KAFAKLAARLYRKALARQLGVAA [MMI-0400] | 74% | 11% | 3% | 89% | 48% | 81% | 87% | 11% | 36% | 86% | 89% | 73% | 85% | 68% | 52% | 177% | 21% | 93% |
| YARAAARQARAKALNRQLGVA (Mammalian) [MMI-0200] |  | 53% | 94% |  | 96% | 100% |  |  | 141% |  | 98% | 100% |  |  | 98% | 124% | 53% | 110% |
